Measurements from the supplement of paper PMC9876800.

System: peptide library, one residue held at a place counted from the S/T acceptor
Assay: relative phosphorylation of the sub-library (ratio to the mean residue at this position); higher = residue favoured
Outline: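 In 384-well plates, purified recombinant kinases (human or orthologue constructs) were incubated for 90 min under kinase-specific conditions with 50 μM biotinylated degenerate peptide sub-libraries and 50 μM ATP spiked with γ-32P-ATP. Each sub-library fixed a single residue at one position around a central Ser/Thr. Relative sub-library phosphorylation, measured by phosphorimaging and densitometry of streptavidin membrane spots, is given as a ratio to the mean residue at that position.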

CDK8, construct: Full length*, human, sequence (P49336 whole entry, looked up): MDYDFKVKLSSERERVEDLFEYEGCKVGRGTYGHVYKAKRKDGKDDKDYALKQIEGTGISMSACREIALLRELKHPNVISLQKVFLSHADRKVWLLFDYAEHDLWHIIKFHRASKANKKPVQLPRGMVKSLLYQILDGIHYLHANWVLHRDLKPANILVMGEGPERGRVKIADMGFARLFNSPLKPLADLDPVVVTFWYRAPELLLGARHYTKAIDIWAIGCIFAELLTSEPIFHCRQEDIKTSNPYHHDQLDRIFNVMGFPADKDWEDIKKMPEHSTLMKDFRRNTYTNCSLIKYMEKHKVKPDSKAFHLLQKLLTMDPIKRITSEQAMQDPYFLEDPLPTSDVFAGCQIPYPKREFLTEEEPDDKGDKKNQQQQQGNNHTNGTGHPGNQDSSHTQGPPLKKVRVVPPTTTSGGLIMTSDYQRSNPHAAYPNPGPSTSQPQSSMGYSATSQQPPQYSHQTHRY
DMPK, construct: aa24-433, human, sequence (Q09013 24-433, looked up): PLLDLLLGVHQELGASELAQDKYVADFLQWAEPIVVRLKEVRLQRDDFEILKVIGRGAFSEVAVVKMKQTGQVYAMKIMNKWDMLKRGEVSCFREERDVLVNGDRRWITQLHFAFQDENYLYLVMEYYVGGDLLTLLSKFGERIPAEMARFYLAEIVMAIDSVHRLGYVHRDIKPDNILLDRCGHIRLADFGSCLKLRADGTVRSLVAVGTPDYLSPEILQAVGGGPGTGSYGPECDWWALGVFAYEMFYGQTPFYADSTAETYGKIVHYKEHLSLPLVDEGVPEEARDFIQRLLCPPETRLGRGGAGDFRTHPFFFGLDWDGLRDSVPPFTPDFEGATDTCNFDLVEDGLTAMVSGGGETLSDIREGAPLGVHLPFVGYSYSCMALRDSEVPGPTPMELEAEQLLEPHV
CLK1, construct: aa128-end, human, sequence (P49759 128-484, looked up): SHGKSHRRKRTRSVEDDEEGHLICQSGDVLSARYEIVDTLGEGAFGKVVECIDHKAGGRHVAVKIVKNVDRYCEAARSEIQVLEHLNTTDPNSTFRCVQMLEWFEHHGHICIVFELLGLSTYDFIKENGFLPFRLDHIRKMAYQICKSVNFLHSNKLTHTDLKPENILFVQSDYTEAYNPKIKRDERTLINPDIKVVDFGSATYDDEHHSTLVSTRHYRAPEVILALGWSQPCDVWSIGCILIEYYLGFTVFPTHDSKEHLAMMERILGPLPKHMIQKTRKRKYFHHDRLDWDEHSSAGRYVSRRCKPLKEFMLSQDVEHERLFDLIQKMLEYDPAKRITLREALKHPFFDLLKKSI
CDK7, construct: Full length, human, sequence (P50613 whole entry, looked up): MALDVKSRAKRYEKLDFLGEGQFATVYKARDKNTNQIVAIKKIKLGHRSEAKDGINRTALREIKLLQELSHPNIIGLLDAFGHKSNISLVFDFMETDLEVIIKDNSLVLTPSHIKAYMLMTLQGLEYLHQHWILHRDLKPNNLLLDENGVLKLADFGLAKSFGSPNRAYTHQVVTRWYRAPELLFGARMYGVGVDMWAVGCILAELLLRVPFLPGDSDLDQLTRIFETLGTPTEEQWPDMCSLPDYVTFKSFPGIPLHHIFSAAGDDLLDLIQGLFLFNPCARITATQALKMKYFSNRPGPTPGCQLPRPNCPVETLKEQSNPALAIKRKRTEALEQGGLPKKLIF

CDK7, construct: Full length, human (from UniProt P50613)
relative phosphorylation
Details | at +1 | at +2 | at +3 | at +4 | at -1 | at -2 | at -3 | at -4 | at -5
A fixed | 0.369 | 1.2 | 1.11 | 0.982 | 0.638 | 1.14 | 1.06 | 1.05 | 1.12
D fixed | 0.303 | 0.747 | 0.502 | 0.558 | 0.367 | 0.385 | 0.671 | 0.621 | 0.658
E fixed | 0.274 | 0.589 | 0.433 | 0.506 | 0.276 | 0.408 | 0.598 | 0.586 | 0.518
F fixed | 0.271 | 0.709 | 1.05 | 1 | 0.977 | 0.484 | 0.676 | 0.812 | 1.01
G fixed | 0.981 | 1.34 | 1.04 | 1.22 | 0.999 | 0.965 | 1.44 | 1.24 | 1.12
H fixed | 0.317 | 1.06 | 1.02 | 1.24 | 0.9 | 0.586 | 0.936 | 1.16 | 1.36
I fixed | 0.339 | 0.81 | 0.854 | 0.956 | 0.385 | 1.28 | 0.647 | 0.734 | 0.728
K fixed | 0.288 | 1.13 | 0.904 | 0.814 | 1.27 | 0.802 | 1.26 | 1.25 | 1.3
L fixed | 0.33 | 0.774 | 1.05 | 0.932 | 1.04 | 1.18 | 0.608 | 0.81 | 0.863
M fixed | 0.333 | 0.871 | 1.02 | 1.04 | 1.09 | 0.978 | 0.793 | 0.975 | 0.878
N fixed | 0.449 | 1.13 | 0.826 | 0.937 | 0.602 | 0.818 | 0.949 | 1.11 | 0.986
P fixed | 11.1 | 1.57 | 1.34 | 1.18 | 1.02 | 3.51 | 2 | 1.37 | 1.07
Q fixed | 0.354 | 1.04 | 0.831 | 1.07 | 0.919 | 0.781 | 1.06 | 1.03 | 0.845
R fixed | 0.294 | 1.36 | 0.624 | 0.727 | 1.56 | 1.14 | 1.87 | 1.31 | 1.22
V fixed | 0.417 | 0.9 | 1.04 | 0.878 | 0.62 | 1.3 | 0.842 | 0.681 | 0.693
W fixed | 0.304 | 0.802 | 1.32 | 1.47 | 3.04 | 0.639 | 0.774 | 1.16 | 1.49
Y fixed | 0.283 | 0.982 | 2.04 | 1.48 | 1.29 | 0.605 | 0.825 | 1.1 | 1.14
pThr fixed | 0.469 | 0.566 | 0.573 | 0.503 | 0.352 | 0.645 | 0.713 | 0.697 | 0.612
pTyr fixed | 0.357 | 0.583 | 0.641 | 0.713 | 0.475 | 0.37 | 0.568 | 0.63 | 0.522

CDK8, construct: Full length*, human (from UniProt P49336)
relative phosphorylation
Details | at +1 | at +2 | at +3 | at +4 | at -1 | at -2 | at -3 | at -4 | at -5
A fixed | 0.287 | 1.26 | 1.05 | 1.01 | 1.02 | 1.65 | 1.08 | 0.959 | 0.86
D fixed | 0.179 | 0.789 | 0.841 | 1.19 | 0.791 | 0.579 | 0.887 | 1.18 | 1.4
E fixed | 0.16 | 0.729 | 0.743 | 0.882 | 0.556 | 0.602 | 0.934 | 1.21 | 1.32
F fixed | 0.26 | 0.84 | 0.734 | 0.893 | 1.03 | 0.43 | 1.04 | 1.1 | 1.33
G fixed | 0.807 | 1.31 | 1.47 | 1.15 | 1.47 | 0.849 | 1.29 | 0.931 | 0.883
H fixed | 0.408 | 1.03 | 1.12 | 1.06 | 0.982 | 0.643 | 0.947 | 1.08 | 1.01
I fixed | 0.463 | 0.891 | 0.735 | 1.04 | 0.286 | 1.06 | 0.684 | 0.944 | 0.864
K fixed | 0.239 | 1.11 | 0.649 | 0.698 | 1.03 | 0.309 | 0.592 | 0.842 | 0.747
L fixed | 0.291 | 1.02 | 0.694 | 0.949 | 1.04 | 0.936 | 0.683 | 0.91 | 0.911
M fixed | 0.36 | 1.12 | 1.02 | 0.955 | 1.44 | 1.05 | 1.48 | 1.05 | 0.78
N fixed | 0.51 | 0.899 | 1.39 | 0.862 | 0.866 | 0.697 | 1.25 | 0.836 | 0.887
P fixed | 10.9 | 0.801 | 1.91 | 1.09 | 1.37 | 4.62 | 1.23 | 0.923 | 0.896
Q fixed | 0.369 | 1.13 | 1.03 | 0.977 | 1.02 | 0.876 | 1.16 | 0.941 | 0.917
R fixed | 0.231 | 1.26 | 0.878 | 0.847 | 1.28 | 0.413 | 0.631 | 0.829 | 0.858
V fixed | 1 | 0.807 | 0.977 | 1.09 | 0.559 | 1.31 | 0.698 | 0.847 | 0.813
W fixed | 0.306 | 1.02 | 0.802 | 1.38 | 1.19 | 0.505 | 1.31 | 1.21 | 0.872
Y fixed | 0.241 | 0.976 | 0.942 | 0.926 | 1.07 | 0.466 | 1.09 | 1.21 | 1.65
pThr fixed | 0.423 | 0.473 | 0.694 | 0.882 | 0.312 | 0.668 | 0.74 | 1.11 | 0.898
pTyr fixed | 0.43 | 0.934 | 0.886 | 0.851 | 0.758 | 0.614 | 0.745 | 1.13 | 1.11

CLK1, construct: aa128-end, human (from UniProt P49759)
relative phosphorylation
Details | at +1 | at +2 | at +3 | at +4 | at -1 | at -2 | at -3 | at -4 | at -5
A fixed | 0.598 | 1.12 | 0.654 | 0.682 | 0.844 | 2.56 | 0.707 | 0.901 | 0.836
D fixed | 0.144 | 0.577 | 0.507 | 0.907 | 0.327 | 0.602 | 0.306 | 0.506 | 0.591
E fixed | 0.488 | 0.614 | 0.409 | 0.937 | 0.393 | 1.54 | 0.309 | 0.636 | 0.666
F fixed | 0.442 | 0.909 | 0.713 | 1.01 | 0.669 | 0.339 | 0.317 | 0.87 | 1.86
G fixed | 0.498 | 0.93 | 0.782 | 0.916 | 0.988 | 1.17 | 0.427 | 0.877 | 0.877
H fixed | 0.56 | 1.23 | 1.01 | 0.915 | 0.822 | 0.482 | 0.634 | 1.02 | 0.956
I fixed | 1.22 | 0.828 | 0.552 | 0.678 | 0.538 | 0.257 | 0.383 | 1.03 | 0.9
K fixed | 0.704 | 1.53 | 3.14 | 1.47 | 2.35 | 0.993 | 2.66 | 1.8 | 1.49
L fixed | 0.897 | 0.926 | 0.665 | 0.884 | 1.01 | 0.467 | 0.381 | 1.01 | 0.943
M fixed | 0.839 | 0.985 | 0.633 | 0.907 | 0.999 | 0.427 | 0.394 | 0.866 | 0.891
N fixed | 0.345 | 0.832 | 0.842 | 0.959 | 0.717 | 0.605 | 0.407 | 0.776 | 0.746
P fixed | 5.99 | 1.18 | 1.84 | 0.92 | 0.993 | 0.588 | 0.368 | 0.725 | 0.839
Q fixed | 0.739 | 0.875 | 0.854 | 1.19 | 1.02 | 0.936 | 0.598 | 0.871 | 0.742
R fixed | 0.697 | 1.94 | 2.42 | 1.76 | 2.84 | 5.04 | 8.11 | 2.33 | 1.82
V fixed | 1.95 | 1.08 | 0.627 | 0.722 | 0.667 | 0.345 | 0.325 | 0.92 | 0.809
W fixed | 0.388 | 0.695 | 0.687 | 1.24 | 0.961 | 0.343 | 0.328 | 0.963 | 0.971
Y fixed | 0.505 | 0.757 | 0.673 | 0.913 | 0.862 | 0.314 | 0.344 | 0.89 | 1.06
pThr fixed | 0.711 | 1.62 | 0.67 | 1.58 | 0.273 | 0.444 | 0.355 | 0.642 | 0.501
pTyr fixed | 0.383 | 0.451 | 0.856 | 0.874 | 0.523 | 0.283 | 0.321 | 0.748 | 0.76

DMPK, construct: aa24-433, human (from UniProt Q09013)
relative phosphorylation
Details | at +1 | at +2 | at +3 | at +4 | at -1 | at -2 | at -3 | at -4 | at -5
A fixed | 0.884 | 1.09 | 0.772 | 0.749 | 0.934 | 0.551 | 0.572 | 0.816 | 0.664
D fixed | 0.54 | 1.27 | 0.59 | 0.767 | 0.487 | 0.294 | 0.309 | 0.393 | 0.359
E fixed | 0.471 | 0.67 | 0.579 | 0.643 | 0.362 | 0.268 | 0.284 | 0.456 | 0.379
F fixed | 0.68 | 0.838 | 0.963 | 0.954 | 0.739 | 0.349 | 0.269 | 0.657 | 0.8
G fixed | 1.68 | 0.858 | 1.04 | 0.945 | 1.08 | 0.537 | 0.448 | 0.959 | 0.915
H fixed | 1.2 | 1.38 | 1.14 | 1.05 | 1.01 | 0.716 | 0.776 | 0.898 | 1.07
I fixed | 1.2 | 1.12 | 1.64 | 0.829 | 0.585 | 0.43 | 0.343 | 0.946 | 1.11
K fixed | 1.05 | 1.23 | 1.03 | 1.47 | 2.01 | 2.67 | 3.21 | 2.42 | 2.72
L fixed | 0.967 | 0.883 | 1.04 | 1.09 | 0.674 | 0.418 | 0.343 | 0.749 | 0.847
M fixed | 0.961 | 0.75 | 0.779 | 0.916 | 0.755 | 0.485 | 0.297 | 0.749 | 0.756
N fixed | 1.29 | 0.779 | 0.83 | 1.01 | 1.2 | 0.747 | 0.43 | 0.864 | 0.675
P fixed | 0.622 | 0.808 | 0.79 | 1.18 | 1.74 | 0.474 | 0.461 | 0.796 | 0.872
Q fixed | 1.25 | 1.06 | 0.882 | 1.07 | 1.22 | 0.933 | 0.877 | 0.922 | 0.882
R fixed | 1.87 | 1.28 | 1.54 | 1.47 | 2.18 | 6.76 | 7.34 | 3.06 | 2.66
V fixed | 0.943 | 1.28 | 1.5 | 0.825 | 0.605 | 0.507 | 0.369 | 0.95 | 0.803
W fixed | 0.641 | 0.925 | 0.926 | 1.21 | 0.644 | 0.431 | 0.304 | 0.647 | 0.657
Y fixed | 0.742 | 0.796 | 0.971 | 0.832 | 0.78 | 0.428 | 0.371 | 0.719 | 0.839
pThr fixed | 0.678 | 1.19 | 0.865 | 0.862 | 0.521 | 0.441 | 0.48 | 0.575 | 0.561
pTyr fixed | 0.522 | 0.996 | 0.772 | 0.617 | 0.52 | 0.387 | 0.493 | 0.548 | 0.689
